Measurements as given in PMC12881670, “Investigation into ligand selectivity and bias at the formyl peptide receptor family” (The Journal of Pharmacology and Experimental Therapeutics, 2025).
Where no end group is shown, it is not given here. The star is where a group is joined. For = O=C*

Experiments:
Test in all cases: cell-based or functional assay
[1] = molecular target: T1, FLAG-Mm_Fpr2 C-terminally fused to Renilla Luciferase 8 (mouse, UniProt O88536 1-351)
T1 sequence (looked up): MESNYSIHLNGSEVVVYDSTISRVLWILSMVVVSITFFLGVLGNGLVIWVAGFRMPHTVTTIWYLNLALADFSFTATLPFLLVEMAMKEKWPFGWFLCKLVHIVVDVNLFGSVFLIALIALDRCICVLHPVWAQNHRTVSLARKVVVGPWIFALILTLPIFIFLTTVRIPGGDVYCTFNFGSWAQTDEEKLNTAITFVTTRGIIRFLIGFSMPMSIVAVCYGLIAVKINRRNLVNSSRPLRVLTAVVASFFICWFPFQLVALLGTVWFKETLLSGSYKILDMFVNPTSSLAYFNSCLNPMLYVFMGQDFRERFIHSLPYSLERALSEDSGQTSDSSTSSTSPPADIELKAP

[2] = molecular target: T2, FLAG-Hs_FPR2 C-terminally fused to Renilla Luciferase 8 (human, UniProt P25090 1-351)
T2 sequence (looked up): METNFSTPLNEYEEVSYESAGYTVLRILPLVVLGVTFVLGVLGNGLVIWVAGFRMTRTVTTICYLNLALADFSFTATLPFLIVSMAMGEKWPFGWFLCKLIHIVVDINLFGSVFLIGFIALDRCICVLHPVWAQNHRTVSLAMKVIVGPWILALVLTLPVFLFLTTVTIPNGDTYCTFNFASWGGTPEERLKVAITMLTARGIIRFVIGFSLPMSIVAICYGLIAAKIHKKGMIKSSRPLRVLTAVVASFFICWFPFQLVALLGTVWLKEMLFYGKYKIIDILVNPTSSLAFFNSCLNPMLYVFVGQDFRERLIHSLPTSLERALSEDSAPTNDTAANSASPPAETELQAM

[3] = molecular target: T3, FLAG-Mm_Fpr1 C-terminally fused to Renilla Luciferase 8 (mouse, UniProt P33766 1-364)
T3 sequence (looked up): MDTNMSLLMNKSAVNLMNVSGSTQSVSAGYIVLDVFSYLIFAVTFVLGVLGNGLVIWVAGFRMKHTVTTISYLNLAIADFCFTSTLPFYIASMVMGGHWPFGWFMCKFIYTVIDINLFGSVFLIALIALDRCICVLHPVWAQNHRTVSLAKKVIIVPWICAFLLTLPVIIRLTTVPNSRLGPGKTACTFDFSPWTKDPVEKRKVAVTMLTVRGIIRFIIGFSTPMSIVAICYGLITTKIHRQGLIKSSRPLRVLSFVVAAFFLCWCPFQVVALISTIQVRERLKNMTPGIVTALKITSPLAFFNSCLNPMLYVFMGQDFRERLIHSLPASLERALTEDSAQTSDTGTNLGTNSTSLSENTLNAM

[4] = molecular target: T4, FLAG-Hs_FPR1 C-terminally fused to Renilla Luciferase 8 (human, UniProt P21462 1-350)
T4 sequence (looked up): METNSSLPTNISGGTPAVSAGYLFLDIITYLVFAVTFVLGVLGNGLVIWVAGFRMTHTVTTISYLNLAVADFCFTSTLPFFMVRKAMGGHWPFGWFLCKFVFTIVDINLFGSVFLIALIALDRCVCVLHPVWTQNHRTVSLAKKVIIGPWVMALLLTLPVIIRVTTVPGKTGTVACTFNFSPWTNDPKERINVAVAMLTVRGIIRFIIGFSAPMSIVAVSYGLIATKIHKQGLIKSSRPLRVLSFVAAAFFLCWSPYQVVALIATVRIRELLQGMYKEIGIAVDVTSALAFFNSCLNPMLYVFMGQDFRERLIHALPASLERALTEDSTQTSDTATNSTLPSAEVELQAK

[5] = molecular target: T1, FLAG-Mm_Fpr2 C-terminally fused to …; remark: listed apart in the source
[6] = molecular target: T3, FLAG-Mm_Fpr1 C-terminally fused to …; remark: listed apart in the source
[7] = molecular target: T4, FLAG-Hs_FPR1 C-terminally fused to …; remark: listed apart in the source
[8] = molecular target: T5, FLAG-tagged human FPR2 (Hs_FPR2) (human, UniProt P25090 1-351)
T5 sequence (looked up): T2 sequence (looked up)

[9] = molecular target: T6, FLAG-tagged mouse Fpr1 (Mm_Fpr1) (mouse, UniProt P33766 1-364)
T6 sequence (looked up): T3 sequence (looked up)

[10] = molecular target: T5, FLAG-tagged human FPR2 (Hs_FPR2); remark: listed apart in the source
[11] = molecular target: T2, FLAG-Hs_FPR2 C-terminally fused to …; remark: listed apart in the source

B1: fMet-Leu-Phe (fMLF) (peptide)
peptide: For-Met-Leu-Phe
BRET of receptor-RLuc8 with Venus-mGsi: Emax (% of 1 μM WKYMVm) [1]: 13.2%
BRET of receptor-RLuc8 with Venus-mGsi: Log EC50 (M) [1]: -4.58 log M
BRET of receptor-RLuc8 with Venus-mGsi: Emax (% of 1 μM WKYMVm) [2]: 61.7%
BRET of receptor-RLuc8 with Venus-mGsi: Log EC50 (M) [2]: -4.05 log M
BRET of receptor-RLuc8 with Venus-mGsi: Emax (% of 1 μM WKYMVm) [3]: 59.3%
BRET of receptor-RLuc8 with Venus-mGsi: Log EC50 (M) [3]: -4.93 log M
BRET of receptor-RLuc8 with Venus-mGsi: Emax (% of 1 μM WKYMVm) [4]: 115%
BRET of receptor-RLuc8 with Venus-mGsi: Log EC50 (M) [4]: -6.47 log M
BRET of receptor-RLuc8 with Arrestin 3-YFP: Emax (% of 1 μM WKYMVm) [5]: 22.7%
BRET of receptor-RLuc8 with Arrestin 3-YFP: Log EC50 (M) [5]: -4.71 log M
BRET of receptor-RLuc8 with Arrestin 3-YFP: Emax (% of 1 μM WKYMVm) [6]: 83.4%
BRET of receptor-RLuc8 with Arrestin 3-YFP: Log EC50 (M) [6]: -4.68 log M
BRET of receptor-RLuc8 with Arrestin 3-YFP: Emax (% of 1 μM WKYMVm) [7]: 97%
BRET of receptor-RLuc8 with Arrestin 3-YFP: Log EC50 (M) [7]: -7.08 log M

B2: MCT-2 (Formyl-MTPMRKINPLMKLIN from Cytochrome b) (peptide)
peptide: For-MTPMRKINPLMKLIN
BRET of receptor-RLuc8 with Venus-mGsi: Emax (% of 1 μM WKYMVm) [1]: 25%
BRET of receptor-RLuc8 with Venus-mGsi: Log EC50 (M) [1]: -4.77 log M
BRET of receptor-RLuc8 with Venus-mGsi: Emax (% of 1 μM WKYMVm) [2]: 44.4%
BRET of receptor-RLuc8 with Venus-mGsi: Log EC50 (M) [2]: -6.23 log M
BRET of receptor-RLuc8 with Venus-mGsi: Emax (% of 1 μM WKYMVm) [3]: -8.19%
BRET of receptor-RLuc8 with Venus-mGsi: Log EC50 (M) [3]: -7.78 log M
ERK1/2 phosphorylation (Western blot): Emax (% of 1 μM WKYMVm) [8]: 93.9%
ERK1/2 phosphorylation (Western blot): Log EC50 (M) [8]: -6.72 log M
receptor internalization (flow cytometry): Emax (% of 1 μM WKYMVm) [9]: 7.39%
receptor internalization (flow cytometry): Log EC50 (M) [9]: -7.24 log M
receptor internalization (flow cytometry): Emax (% of 1 μM WKYMVm) [10]: 63.3%
receptor internalization (flow cytometry): Log EC50 (M) [10]: -6.87 log M
BRET of receptor-RLuc8 with Arrestin 3-YFP: Emax (% of 1 μM WKYMVm) [5]: 12.1%
BRET of receptor-RLuc8 with Arrestin 3-YFP: Log EC50 (M) [5]: -10.3 log M
BRET of receptor-RLuc8 with Arrestin 3-YFP: Emax (% of 1 μM WKYMVm) [11]: 51.8%
BRET of receptor-RLuc8 with Arrestin 3-YFP: Log EC50 (M) [11]: -6.06 log M
